According to the nanobody polyreactivity screen of Harvey et al. (2022):

Experiment: yeast display, Sf9 membrane polyspecificity reagent, FACS + sequencing; frameworks hold sequencing errors
Procedure, shortened: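 Genes from sorted yeast were amplified by colony PCR, read by MiSeq 2 × 250 sequencing and filtered on CDR length. These cells carried a synthetic nanobody library in Saccharomyces cerevisiae BJ5465 and were sorted by FACS into low and high (top ~1%) gates on anti-HA and streptavidin fluorescence. Polyreactivity is labelled according to the gate of origin.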

Sequence | polyreactivity (PSR sort gate)
QVQRVESGGGLVQAGGSLRLTSAASGSTFGTNAMGWYRQAPGTERELVATISKSGGSTYYADSVKGRFTISRDNAKNTVYLQMNSLKPEANAVYYCARRYRDYGRYGYWGQGTEVTVSS | high polyreactivity
QVQRVESGGGLVQAGGTLRLSCAASGRIFWYNAMGWSRQAPGKERELVAVISTRGGRTYYADSVKGRFTISRDNAKNTVYLQMNSLKPEDTAVYYCAAEFLNKAVGGVTSIYDSWGQGTQVTVSS | low polyreactivity
QVQRVESGGGLVQARASLRLSCAASGSIFPHYAMGWYRQAPGKERDLVATIRSRSGSTYYADSVKGRFTISRDNAKNTVYLQMNSLKPEDTAVYYCAARYYKERYWGQGTQVTVSS | low polyreactivity
QVQRVESGGGLVQEGRSLRLSCAASGFIFSVYAMGWYRQAQGKERELVAAMTWNGGRTYYADSVKGRFRISRDHAKNTVYLQMNSVKPEDTAVYYCAADSRGALNSVYRYGSIVEGDYWGQGTQVTVSS | low polyreactivity
QVQRVESGGRLVQAGGSLRLSCAACGSTFPGNAMGWYRQAPGKERELVAAISSSGGSTDYADSVKGRFTCSRDNAKNTVYLQLNRLKPEDTAVYSCATKYRFCTYRDIAYPYDYWGQGPQVTVSS | low polyreactivity
QVQRVESGGRLVQAGGSLRLSCAASGSTFPSYAMGWSRQAPGKERELVAAISWSGGTTYYADSVKGRFTISRDNAKNTVYLQMNSLKPEDTAVYYCAAGGRRQAYGRRDYWGQGNQVTVSS | high polyreactivity
QVQRVESGVGIVQAGGSLRLSSAASGFIFSRYAMGWYRQAPGNERQLVAAIRFSGSITYYADSVKGRFTISRDNAKNTVYLQMNSLKPEDTAVYYCAAPLTFFKRVYYWGQGTQLTVSS | high polyreactivity
QVQRVETGGGLVQAGGSLRLSCAASGRTIRVYAMGWYRQPPGKETELVPAISGSGGSTYYADSVKGRFTISRDNAKNTVYLQMNSLKPEDTAVYFCYAASWTFQTTPKYDYWGQGTLVTVSS | high polyreactivity
QVQVVDSGGGLVQAGGSLRLSCAASGSIFYVYAMGWYRQAPGKVWEFVAAIRWFSGSTYYADSVKWRYTISRDNAKNTVYLQMNSLKPEDTAVYYCAARKYKQGRFKYDYWGQGTQVTVSS | high polyreactivity
QVQVVESGGGIVKAGGSLRLSCAPSGSTFYYYAMGWYRQAPRKERELVATISWSGDSTYADSVKGRFTISRDNSKNTVYLQLTSLKPEDTAVYYCATCGDWWGFRYDYWGQCTQVTVSS | low polyreactivity
QVQVVESGGGLVHAVCSLRLSCAASGRIFSTYALGLYRPAPGKERELVAAISSSGARTYYADSVKGRFTISRDNAKNNVYLQMNSLKPEDTSVYYCAAPPYNRPGYGYDYWGQGTQVTVSS | high polyreactivity
QVQVVESGGGLVQAGCSLRLSCAASGSTFQANDMGLYRQAPGKERELVAAISTGGSSTYYADSVKGRFTISRDNEKNTFFLQMNSLKPEDTAVYYCAVDGLGGREGYWGQGTQVTVSS | high polyreactivity
QVQVVESGGGLVQAGGSLRLICAASGRIFDSNAMGWYRQEPVKERELVARIDPGDDTNSADSVKGRFTISRDNAKNTLYLQMNSLKPEDTAVYYCATDPDYVLYRTAYYEYDYWGQGTQVTVSS | low polyreactivity
QVQVVESGGGLVQAGGSLRLSCAASGFTFPYYALGLYRQAPGKERELVAAITTGGSTYYSDSVKGRFTISRDNAKNTVYLQMNSLKPEDTAVYYCATGPSLWYRSSFRGEGDYWGQGTQVTVSS | low polyreactivity
QVQVVESGGGLVQAGGSLRLSCAASGLIFVYYAMGWYRQAPGKERELVAGITRGGGTNYADSVKGRFTISRDNAKNSFYLQMNSLKPEDTAVYYCAADDLPGMDYWGQGTQVTVSS | low polyreactivity
QVQVVESGGGLVQAGGSLRLSCAASGRIFNRNAMGWYRQAPGKERELVAAITRGGRTNYADSVKGRFRISRDNAQNTVYLQMNSLKPEDTAVYYCAAAYYGSHGRYDYWGQGTQVTVSS | high polyreactivity
QVQVVESGGGLVQAGGSLRLSCAASGRIFYVYAMGWYRQAPGKERELVAAITISGGSTYYADSVKGRFTISRDNAKNTVYLQMNSLKPEDTAVYYCATDRSSHWYDYWGQGTQVTVSS | low polyreactivity
QVQVVESGGGLVQAGGSLRLSCAASGRTFYPYAMGWYRQAPGKERELVAAISSSGGSTYYADSVKGRFTISRDNAKNTDYLPMNSLKPEDTAVYYCAAVASKYKYTGGMDYWGQGTQVTVSS | high polyreactivity

Sequence | polyreactivity (PSR sort gate)
QVQVVESGGGLVQAGGSLRLSCAASGSIFDRNAMGWYRKAPGKERELVAGISRSGGSTNYADSVKGRFTISRDNAKNPVYLQMNSLNPEDTAVYYCAASRVVWVGRPWYQVRGDYWGQGTQVTVSS | high polyreactivity
QVQVVESGGGLVQAGGSLRLSCAASGSIFPVYAMGWYRQAPGKERELVAAISSGGSTNYADSVKGRFTISRDNAKNTVYLQRNSLKPEDTAVYYSARRWYYVRHGYWGQGTQVTVSS | high polyreactivity
QVQVVESGGGLVQAGGSLRLSCAASGSIFRDNAMGCYRQAPGKERELVASIRSSGGRTYYADSVKGRFTISRDNAKNTVYLQMNSLKPEDTAVYYCARRWYPVTPYARMYYWGQGTQVTVSS | low polyreactivity
QVQVVESGGGLVQAGGSLRLSCAASGSTFEYNAMGWYRQAPGKERELVASSTNYADSVKGRFTISRDNATNTVYLKMNSLKPEDTAVYYCAREQGVNRNHDYWGQGTQVTVSS | low polyreactivity
QVQVVESGGGLVQAGGSLRLSCAASGSTFSWYAIGWYIQAPGKDRELVARISSGDRTNYADSVKGRFTITRDNAKNNVYLEMNSQKPEDTAVYYCNADYGQPSYYDDGDYWGQGTQVTVSS | low polyreactivity
QVQVVESGGGLVQAGGSLRLSCAGSGSIFYFYAMGWSRQAPGKARELVATITSGGRTYYADSVKGRFTISRDNAKNTVYLQMISLKPEDTAVYYCNSRPVSYRYSSYIFNYWGQGTQVTVSS | high polyreactivity
QVQVVESGGGLVQEGGSLRLSCSASGRIFGVNAMGWYRKAPGKERELFAAISRSGGSTYYADSVKGRFTISRDNEKNTVYLQMNSLNPEDTAVYYCAAGGRRYDDDYWGQGTQVTVSS | high polyreactivity
QVRLLETGGGLVQAGGSLRLSCAPSGSTFTDYDMGWYRPAPGKERELVAAITSGGSTNYADSVKGSFTISRDNAKNTVYLQMNRLKPEDTAVYYCAASYWDTEPGYREYDYWGQGTLVTVSS | low polyreactivity
QVRLQESGGGLVQAGGSLRLSCAASGSISLTYYMDWSRQAPCTVREFVATITAGATTNYADSVKGRFTISRDNAKNTVYPQMNSLKPEDTEVYYSAVRAEHQVTLIYLGQGTQVTVSS | low polyreactivity
QVRLVESGGGLVQAGGSLRLSCAASGRIFGYYTMGWYRQAPGKERELVADNNRDGSTYADSVKGRFTLSRDNAKNTVYLQMNSLKPEDTAVYYCNAQYDSAYGLGFFIGYFSQYDYWGQGTQVTVSS | low polyreactivity
QVRLVESGGGLVQAGGSLRLSCAASGRIFVYNAMGWYRQPPGKERELVASISWSGDSTYADSVKGRFTISRDNAKNTVYLQMNSLKPEDTAVYYCAAYSQADYQNMDYWGQGTQVTVSS | low polyreactivity
QVRLVESGGGLVQAGGSLRLSCAASGSIFYFNAMGWYRQAPGKERELVATIRYRGGRTYADSVKGRFTISRDNAKNTVYLQMNSLKPEDTAVYFCNTYARYAYLTGRMDYWGQGTQVTVSS | high polyreactivity
QVRLVESGGGLVQAGGSLRLSCAASGSTFNNYDMGWYRQAPGKERELVAAYADSVKGRFTISRDNAKNTVYLQMNRLKPEDTADYYCAAVREKTLYYLSRFDYWGQGTQVTVSS | low polyreactivity
QVRLVESGGGLVQAGGSLRLSCAASGSTFQINAMGWYRQAPGKEREFVAAITVSSGSTYYADSVKGRFTISRDNAKNTVYLQMNSLKPEDTAVYYCAATSKPLGLQTYGYWGQGTQVTVSS | low polyreactivity
QVRLVESGGGLVQAGGSLRLSCADSGSTFTTYAIGWYRQEPGKERELVAAISSGGDTKYADSVKGRFTISRDNAKNTVYLQMNSLKPEDTAVYYWNVVSFRYYYKYGYCGQGTQVTVSS | high polyreactivity
QVTLVESGGGLVQAGGSLRLSCAASVLIFYSYAMGWYRQAPGKERELVAAISSGTRTYYADSVKGRFTISRDNAKNTVYLQMNSLKPEDTAVYYCAAVDAHKKRYPPSGRLYGYWGHGTQVTVSS | high polyreactivity
WLLLMGWYRQPPGEERELVAGINDGASTNDADSVKGRFTISRDNARNTVYLKMNSLKPGDTAVYYCAGWQPVLIWFYYWGQGTQVTVSS | high polyreactivity
